Experiment [1] has as its target hMOR-1B2 (human) (UniProt P35372). As to the kind of experiment: competition against [3H]DAMGO (~1 nM), membranes of stable CHO transfectants.
For experiment [2], the target named is rMOR-1 (no Exon 4) (rat) (UniProt P33535). As to the kind of experiment: cell-based or functional assay.
Experiment [3] deals with rMOR-1 (rat) (UniProt P33535). As to the kind of experiment: cell-based or functional assay.
For experiment [4], the target named is rMOR-1A (rat). Kind of experiment: cell-based or functional assay.
Experiment [5] has as its target rMOR-1C1 (rat). Kind of experiment: cell-based or functional assay.
Experiment [6] deals with rMOR-1D (rat). As to the kind of experiment: cell-based or functional assay.
Experiment [7] deals with rMOR-1 (rat) (UniProt P33535). As to the kind of experiment: competition against [3H]DAMGO (~1 nM), membranes of stable CHO transfectants.
In experiment [8] the target is hMOR-1 (exons 1-3) (human) (UniProt P35372). As to the kind of experiment: cell-based or functional assay.
Experiment [9] addresses hMOR-1 (human) (UniProt P35372). As to the kind of experiment: cell-based or functional assay.
Experiment [10] addresses hMOR-1A (human). Kind of experiment: cell-based or functional assay.
For experiment [11], the target named is hMOR-1B1 (human) (UniProt P35372). As to the kind of experiment: cell-based or functional assay.
Experiment [12] addresses hMOR-1B2 (human) (UniProt P35372). Kind of experiment: cell-based or functional assay.
Experiment [13] deals with hMOR-1B3 (human) (UniProt P35372). Kind of experiment: cell-based or functional assay.
Experiment [14] deals with hMOR-1B4 (human) (UniProt P35372). As to the kind of experiment: cell-based or functional assay.
The target in experiment [15] is hMOR-1B5 (human) (UniProt P35372). Kind of experiment: cell-based or functional assay.
The target of experiment [16] is hMOR-1Y (human) (UniProt P35372). Kind of experiment: cell-based or functional assay.
Experiment [17] addresses rMOR-1 (no Exon 4) (rat) (UniProt P33535). As to the kind of experiment: [3H]DAMGO saturation binding, membranes of stable CHO transfectants.
For experiment [18], the target named is rMOR-1 (rat) (UniProt P33535). The description is as above.
Experiment [19] addresses rMOR-1A (rat). The experiment is described as above.
For experiment [20], the target named is rMOR-1C1 (rat). The description is as above.
Experiment [21] deals with rMOR-1D (rat). The experiment is described as above.
In experiment [22] the target is hMOR-1 (human) (UniProt P35372). Kind of experiment: competition against [3H]DAMGO (~1 nM), membranes of stable CHO transfectants.
Experiment [23] deals with hMOR-1B1 (human) (UniProt P35372). Described as above.
Experiment [24] addresses rMOR-1A (rat). Described as above.
Experiment [25] deals with rMOR-1C1 (rat). The description is as above.
The target of experiment [26] is rMOR-1D (rat). The experiment is described as above.
Experiment [27] deals with hMOR-1 (exons 1-3) (human) (UniProt P35372). Described as above.
The target of experiment [28] is hMOR-1A (human). Described as above.
For experiment [29], the target named is hMOR-1B3 (human) (UniProt P35372). The description is as above.
For experiment [30], the target named is hMOR-1B4 (human) (UniProt P35372). The experiment is described as above.
The target in experiment [31] is hMOR-1B5 (human) (UniProt P35372). The description is as above.
The target of experiment [32] is hMOR-1Y (human) (UniProt P35372). Described as above.
Experiment [33] addresses rMOR-1 (no Exon 4) (rat) (UniProt P33535). The description is as above.

DADLE (peptide): the Ki in experiment [1] worked out at 10 nM.
As to Endomorphin 1 (peptide), the Max Stim (%) in [2] was determined as 189%; in experiment [3], 320%; in experiment [4], 205%; in [5], 377%; in experiment [6] it was 145%. In [6], the EC50 (nM), stimulation of [35S]GTPγS binding worked out at 100 nM.
Endomorphin 2 (peptide): the Ki in experiment [7] is 8 nM.
For the substance “[D-Ala^2,MePhe^4,Gly(ol)^5]enkephalin (DAMGO) (peptide)”, the Max Inhib (%) in experiment [8] was 74%; in experiment [9] it was 76%; in [10], 82%; in experiment [11], 57%; in experiment [12] it was 90%; in [13], 73%. The Max Inhib (%) in experiment [14] was 65%; in experiment [15] it was 83%; in experiment [16] it was 91%. Besides, the EC50 (nM), stimulation of [35S]GTPγS binding came to 86 nM in [2]; 12 nM in experiment [3]; 13 nM in [4]; 4 nM in experiment [5]; 125 nM in experiment [6]. Also, the Max Stim (%) in experiment [2] was 196%; in experiment [3], 233%; in experiment [4], 176%; in [5], 233%; in [6] it was 113%. For the same substance, the Kd in experiment [17] was 4.5 nM; in experiment [18], 2.8 nM; in experiment [19], 2.5 nM; in [20], 4.8 nM; in experiment [21], 4.7 nM. The Ki stood at 2 nM in experiment [22]; 1.2 nM in experiment [23]; 3.3 nM in [7]; 6 nM in [24]; 4.5 nM in experiment [25]; 4.7 nM in experiment [26].
Turning to “[D-Pen^2, D-Pen^5]enkephalin (DPDPE) (peptide)”, the inhibition constant (Ki) in experiment [27], in experiment [22], in experiment [28], in [23], in experiment [1] and in experiment [29] was more than 500 nM each time. For the same substance, the Ki in experiment [30], in [31] and in experiment [32] was more than 500 nM in each case.
For “[D-Ser^2, Leu^5]enkephalin-Thr^6 (DSLET) (peptide)”, the EC50 (nM), stimulation of [35S]GTPγS binding worked out at 690 nM in experiment [2]; 76 nM in experiment [3]; 127 nM in experiment [4]; 253 nM in [5]; 540 nM in [6]. Moreover, the Max Stim (%) was 226% in experiment [2]; 251% in experiment [3]; 206% in experiment [4]; 312% in experiment [5]; 187% in experiment [6]. Further, the Ki in [22] amounted to 19.1 nM; in experiment [28], 19.7 nM; in experiment [23] it was 13.9 nM; in [1] it was 34.4 nM; in experiment [29] it was 16.4 nM; in experiment [30] it was 22.3 nM. In addition, the Ki was 15.4 nM in experiment [32]; 24.2 nM in experiment [33]; 30.9 nM in experiment [7]; 44.5 nM in [24]; 45 nM in experiment [25]; 27.3 nM in [26].

The record behind these values is patent publication US20070258988A1.
